These results are taken from patent publication US20040121323, “Mrna binding motif” (published 2004).

Series [1] concerns the target Grb7 PH-SH2 fragment (Homo sapiens, UniProt Q14451 Q14451:229-532). Nature of the series: EMSA. The conditions noted are these: tags: GST; label: 32P.
The target in series [2] is T1, Grb14 SH2 domain (aa 426-540) (Homo sapiens, UniProt Q14449 Q14449:426-540).
T1 sequence: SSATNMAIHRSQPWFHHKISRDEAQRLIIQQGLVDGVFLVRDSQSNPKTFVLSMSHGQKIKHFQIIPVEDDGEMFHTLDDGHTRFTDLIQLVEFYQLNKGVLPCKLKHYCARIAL
Nature of the series: EMSA. The settings on record: tags: GST; label: 32P. On the technique in general: In EMSA bound probe runs differently from free probe, usually more slowly.

Chain of Grb7 PH-SH2 fragment (Q14451 229-532, one chain of several): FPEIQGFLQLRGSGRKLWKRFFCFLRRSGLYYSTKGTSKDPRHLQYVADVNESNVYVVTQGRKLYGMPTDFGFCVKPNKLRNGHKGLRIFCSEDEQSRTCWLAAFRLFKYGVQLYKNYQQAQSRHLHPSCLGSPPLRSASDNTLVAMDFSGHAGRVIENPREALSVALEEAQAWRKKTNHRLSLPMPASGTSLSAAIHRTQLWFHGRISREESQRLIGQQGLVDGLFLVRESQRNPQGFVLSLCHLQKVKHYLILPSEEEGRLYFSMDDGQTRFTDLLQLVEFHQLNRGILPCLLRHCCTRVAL

B1: erbB-2 3'-UTR U-rich probe (ssRNA)
RNA: UUUGUACAGAGUGCUUUUCUGUUUAGUUUUUACUUUUUUUGUUUUGUUUUUUUAAAGACGAAAUAAAGA
As for B1, the binding result in series [1] and in series [2] was “binds” in each case.
